Where no end group is shown, it is not given here. [ ]: non-standard residue; d: D form.
Key:
human glucagon receptor = human glucagon receptor (human, UniProt P47871 26-477); assay: cell-based or functional assay
human GLP-1 receptor = human GLP-1 receptor (human, UniProt P43220 24-463); assay: cell-based or functional assay

Chain of human glucagon receptor (P47871 26-477): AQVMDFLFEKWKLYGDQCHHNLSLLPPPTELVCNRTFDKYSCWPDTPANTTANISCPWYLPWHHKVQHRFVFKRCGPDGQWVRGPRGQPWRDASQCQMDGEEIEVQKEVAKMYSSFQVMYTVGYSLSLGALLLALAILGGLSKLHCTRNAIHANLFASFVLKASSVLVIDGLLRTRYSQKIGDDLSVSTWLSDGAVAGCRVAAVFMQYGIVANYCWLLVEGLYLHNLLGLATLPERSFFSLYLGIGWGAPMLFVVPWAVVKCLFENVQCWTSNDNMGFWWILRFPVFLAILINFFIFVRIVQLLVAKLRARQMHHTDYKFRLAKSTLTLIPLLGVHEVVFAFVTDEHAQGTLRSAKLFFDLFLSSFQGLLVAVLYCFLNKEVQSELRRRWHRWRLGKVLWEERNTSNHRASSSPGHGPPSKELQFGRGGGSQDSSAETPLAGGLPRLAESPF

B1: SEQ ID NO: (43) (peptide)
peptide: H[dS]QGTFTSDLSKQFDSRRAQDFIEWLKNGGPSSGAPPPS-NH2
modifications: N-terminus assumed
SMILES: CC[C@H](C)[C@H](NC(=O)[C@H](Cc1ccccc1)NC(=O)[C@H](CC(=O)O)NC(=O)[C@H](CCC(N)=O)NC(=O)[C@H](C)NC(=O)[C@H](CCCNC(=N)N)NC(=O)[C@H](CCCNC(=N)N)NC(=O)[C@H](CO)NC(=O)[C@H](CC(=O)O)NC(=O)[C@H](Cc1ccccc1)NC(=O)[C@H](CCC(N)=O)NC(=O)[C@H](CCCCN)NC(=O)[C@H](CO)NC(=O)[C@H](CC(C)C)NC(=O)[C@H](CC(=O)O)NC(=O)[C@H](CO)NC(=O)[C@@H](NC(=O)[C@H](Cc1ccccc1)NC(=O)[C@@H](NC(=O)CNC(=O)[C@H](CCC(N)=O)NC(=O)[C@@H](CO)NC(=O)[C@@H](N)Cc1c[nH]cn1)[C@@H](C)O)[C@@H](C)O)C(=O)N[C@@H](CCC(=O)O)C(=O)N[C@@H](Cc1c[nH]c2ccccc12)C(=O)N[C@@H](CC(C)C)C(=O)N[C@@H](CCCCN)C(=O)N[C@@H](CC(N)=O)C(=O)NCC(=O)NCC(=O)N1CCC[C@H]1C(=O)N[C@@H](CO)C(=O)N[C@@H](CO)C(=O)NCC(=O)N[C@@H](C)C(=O)N1CCC[C@H]1C(=O)N1CCC[C@H]1C(=O)N1CCC[C@H]1C(=O)N[C@@H](CO)C(N)=O
B1 was tested, and the “EC50 hGlucagonR (cAMP formation)” value (human glucagon receptor) was 0.148 nM and the “EC50 hGLP-1R (cAMP formation)” value (human GLP-1 receptor) was 0.3 nM.

Source: US20130336893A1 (Sanofi, published 2013)
